The values below come from the supplement of paper PMC10567573.

To fix the notation:
B1: KRT34 (parent)
chain: PTVDLNQVLNETRSQYEALVETNR
B2: ZNF8 (parent)
chain: VHVIGVEEPSVGASMLFDIREST
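Also: lentivirally expressed fusions sorted by FACS into six bins by GFP to DsRed ratio, PSI derived from sequencing read proportions per bin multiplied by bin number.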

Variants of B1 are the subject of the first data set. Put plainly: protein stability index of a GFP-peptide fusion (GPS, HEK-293T) (PSI 1-6); higher = more stable. The settings on record: c terminus: a fixed tail appended.
QTVDLNQVLNETRSQYEALVETNR: the protein stability index stood at 3.77.

For the variant HTVDLNQVLNETRSQYEALVETNR, the protein stability index was 3.97.

ATVDLNQVLNETRSQYEALVETNR: the protein stability index amounted to 3.41.

In the case of ITVDLNQVLNETRSQYEALVETNR, the protein stability index was found to be 2.42.

In the case of NTVDLNQVLNETRSQYEALVETNR, the protein stability index came to 3.21.

STVDLNQVLNETRSQYEALVETNR: the protein stability index was 3.82.

Take VTVDLNQVLNETRSQYEALVETNR: the protein stability index was determined as 2.5.

With YTVDLNQVLNETRSQYEALVETNR, the protein stability index stood at 2.84.

In the case of MTVDLNQVLNETRSQYEALVETNR, the protein stability index turned out to be 3.31.

As to CTVDLNQVLNETRSQYEALVETNR, the protein stability index worked out at 2.77.

With RTVDLNQVLNETRSQYEALVETNR, the protein stability index was found to be 3.43.

For DTVDLNQVLNETRSQYEALVETNR, the protein stability index worked out at 4.12.

As for TTVDLNQVLNETRSQYEALVETNR, the protein stability index amounted to 3.96.

GTVDLNQVLNETRSQYEALVETNR: the protein stability index was 3.5.

On to ETVDLNQVLNETRSQYEALVETNR, for which the protein stability index is 2.82.

As for LTVDLNQVLNETRSQYEALVETNR, the protein stability index is 2.88.

For WTVDLNQVLNETRSQYEALVETNR, the protein stability index came to 2.95.

FTVDLNQVLNETRSQYEALVETNR: the protein stability index turned out to be 3.22.

Consider KTVDLNQVLNETRSQYEALVETNR, for which the protein stability index is 3.83.

In the case of PIVDLNQVLNETRSQYEALVETNR, the protein stability index stood at 2.99.

Consider PMVDLNQVLNETRSQYEALVETNR, for which the protein stability index amounted to 1.85.

For the variant PGVDLNQVLNETRSQYEALVETNR, the protein stability index stood at 4.14.

Take PHVDLNQVLNETRSQYEALVETNR: the protein stability index amounted to 3.38.

With PKVDLNQVLNETRSQYEALVETNR, the protein stability index is 3.14.

As to PFVDLNQVLNETRSQYEALVETNR, the protein stability index is 1.89.

Regarding PCVDLNQVLNETRSQYEALVETNR, the protein stability index is 2.67.

On to PEVDLNQVLNETRSQYEALVETNR, for which the protein stability index came out at 2.78.

In the case of PDVDLNQVLNETRSQYEALVETNR, the protein stability index came to 3.82.

For PLVDLNQVLNETRSQYEALVETNR, the protein stability index was 1.85.

In the next data set the parent is B2. The data set is described as above. The note with it: c terminus: native.
VHVIGVEEPSVGASMLFDIRFST: the protein stability index came to 2.77.

VHVIGVEEPSVGASMLFDIRLST: the protein stability index was determined as 2.64.

On to VHVIGVEEPSVGASMLFDIRSST, for which the protein stability index was found to be 1.76.

Regarding VHVIGVEEPSVGASMLFDIRHST, the protein stability index is 1.95.

Consider VHVIGVEEPSVGASMLFDIRNST, for which the protein stability index came out at 2.08.

For the variant VHVIGVEEPSVGASMLFDIRTST, the protein stability index was found to be 2.01.

On to VHVIGVEEPSVGASMLFDIRQST, for which the protein stability index stood at 1.29.

Take VHVIGVEEPSVGASMLFDIRCST: the protein stability index amounted to 2.9.

For the variant VHVIGVEEPSVGASMLFDIRYST, the protein stability index amounted to 2.4.

With VHVIGVEEPSVGASMLFDIRVST, the protein stability index is 1.78.

Turning to VHVIGVEEPSVGASMLFDIRDST, the protein stability index was 2.38.

Turning to VHVIGVEEPSVGASMLFDIRWST, the protein stability index worked out at 3.39.

As for VHVIGVEEPSVGASMLFDIRMST, the protein stability index worked out at 2.04.

VHVIGVEEPSVGASMLFDIRKST: the protein stability index was determined as 2.2.

For VHVIGVEEPSVGASMLFDIRAST, the protein stability index is 2.37.

For VHVIGVEEPSVGASMLFDIRPST, the protein stability index was determined as 1.42.

Regarding VHVIGVEEPSVGASMLFDIRGST, the protein stability index was 2.42.

As to VHVIGVEEPSVGASMLFDIRIST, the protein stability index came out at 3.55.

With VHVIGVEEPSVGASMLFDIRRST, the protein stability index was 1.53.

In the case of VHVIGVEEPSVGASMLFDISEST, the protein stability index came out at 2.63.

Turning to VHVIGVEEPSVGASMLFDINEST, the protein stability index worked out at 3.1.

As for VHVIGVEEPSVGASMLFDIVEST, the protein stability index was determined as 1.57.

Take VHVIGVEEPSVGASMLFDIWEST: the protein stability index came to 2.43.

Take VHVIGVEEPSVGASMLFDIMEST: the protein stability index turned out to be 1.79.

Regarding VHVIGVEEPSVGASMLFDILEST, the protein stability index is 1.55.

Turning to VHVIGVEEPSVGASMLFDITEST, the protein stability index was found to be 2.4.

With VHVIGVEEPSVGASMLFDIPEST, the protein stability index is 2.48.

Turning to VHVIGVEEPSVGASMLFDIYEST, the protein stability index was 1.81.

Take VHVIGVEEPSVGASMLFDIKEST: the protein stability index is 2.4.

Turning to VHVIGVEEPSVGASMLFDIQEST, the protein stability index is 2.36.

Turning to VHVIGVEEPSVGASMLFDIREDT, the protein stability index amounted to 2.62.

Turning to VHVIGVEEPSVGASMLFDIREGT, the protein stability index was 1.79.

Consider VHVIGVEEPSVGASMLFDIREMT, for which the protein stability index amounted to 2.55.

As to VHVIGVEEPSVGASMLFDIREAT, the protein stability index worked out at 2.38.

On to VHVIGVEEPSVGASMLFDIREHT, for which the protein stability index stood at 2.55.

In the case of VHVIGVEEPSVGASMLFDIREQT, the protein stability index was 2.2.

In the case of VHVIGVEEPSVGASMLFDIREKT, the protein stability index stood at 2.3.

With VHVIGVEEPSVGASMLFDIRELT, the protein stability index stood at 1.68.

For the variant VHVIGVEEPSVGASMLFDIRERT, the protein stability index worked out at 1.92.

For the variant VHVIGVEEPSVGASMLFDIREVT, the protein stability index turned out to be 1.55.

Consider VHVIGVEEPSVGASMLFDIREYT, for which the protein stability index was 1.59.

With VHVIGVEEPSVGASMLFDIREPT, the protein stability index came out at 2.42.

On to VHVIGVEEPSVGASMLFDIRETT, for which the protein stability index was determined as 2.35.

For the variant VHVIGVEEPSVGASMLFDIREFT, the protein stability index turned out to be 2.23.

VHVIGVEEPSVGASMLFDIRECT: the protein stability index stood at 2.52.

For the variant VHVIGVEEPSVGASMLFDIRENT, the protein stability index turned out to be 3.08.

As for VHVIGVEEPSVGASMLFDIREIT, the protein stability index turned out to be 1.69.

For VHVIGVEEPSVGASMLFDIREWT, the protein stability index was 1.36.

Consider VHVIGVEEPSVGASMLFDIREET, for which the protein stability index came out at 2.58.

For VHVIGVEEPSVGASMLFDIRESE, the protein stability index is 2.37.

For the variant VHVIGVEEPSVGASMLFDIRESR, the protein stability index is 2.63.

Consider VHVIGVEEPSVGASMLFDIRESS, for which the protein stability index turned out to be 2.48.

In the case of VHVIGVEEPSVGASMLFDIRESQ, the protein stability index was 2.09.

Regarding VHVIGVEEPSVGASMLFDIRESA, the protein stability index is 2.01.

Regarding VHVIGVEEPSVGASMLFDIRESP, the protein stability index was 2.04.

For the variant VHVIGVEEPSVGASMLFDIRESV, the protein stability index was found to be 2.06.

In the case of VHVIGVEEPSVGASMLFDIRESN, the protein stability index turned out to be 2.14.

For the variant VHVIGVEEPSVGASMLFDIRESH, the protein stability index came out at 2.45.

On to VHVIGVEEPSVGASMLFDIRESC, for which the protein stability index was determined as 1.76.

Consider VHVIGVEEPSVGASMLFDIRESK, for which the protein stability index amounted to 2.22.

For VHVIGVEEPSVGASMLFDIRESY, the protein stability index was found to be 1.76.

Take VHVIGVEEPSVGASMLFDIRESF: the protein stability index came out at 1.61.

Regarding VHVIGVEEPSVGASMLFDIRESL, the protein stability index was determined as 1.79.

Regarding VHVIGVEEPSVGASMLFDIRESD, the protein stability index worked out at 2.37.

Take VHVIGVEEPSVGASMLFDIRESI: the protein stability index is 1.69.

For the variant VHVIGVEEPSVGASMLFDIRESM, the protein stability index worked out at 2.14.

For VHVIGVEEPSVGASMLFDIRESG, the protein stability index is 2.12.
